Consider ten molecules from patent publication US20220112276A1 (Janssen / Centocor, published 2022).

What is called Kd is the equilibrium constant for the complex coming apart.

Residue numbers refer to the chain shown, from its start.

T1: mouse pIgR extracellular domain (ECD) (mouse, UniProt O70570 19-645)
T1 construct: Bought from R&D Systems (Cat 2800-PG-050); also called mpIgR ECD
T1 sequence: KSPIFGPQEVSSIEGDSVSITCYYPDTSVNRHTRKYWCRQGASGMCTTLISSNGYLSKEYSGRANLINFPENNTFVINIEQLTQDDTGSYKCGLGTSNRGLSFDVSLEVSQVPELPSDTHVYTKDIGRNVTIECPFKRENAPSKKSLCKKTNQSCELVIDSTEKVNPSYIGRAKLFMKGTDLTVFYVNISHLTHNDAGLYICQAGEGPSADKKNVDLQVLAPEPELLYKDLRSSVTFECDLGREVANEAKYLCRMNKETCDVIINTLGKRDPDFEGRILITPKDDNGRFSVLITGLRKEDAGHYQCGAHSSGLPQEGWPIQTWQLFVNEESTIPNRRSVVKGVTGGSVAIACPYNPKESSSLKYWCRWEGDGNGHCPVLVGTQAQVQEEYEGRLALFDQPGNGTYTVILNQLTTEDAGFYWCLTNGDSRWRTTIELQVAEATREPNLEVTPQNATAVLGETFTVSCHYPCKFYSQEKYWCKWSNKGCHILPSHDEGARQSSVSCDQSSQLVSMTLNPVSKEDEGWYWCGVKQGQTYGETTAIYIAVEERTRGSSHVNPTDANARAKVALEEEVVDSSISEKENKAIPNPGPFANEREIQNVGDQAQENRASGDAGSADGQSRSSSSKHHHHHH

T2: rat pIgR extracellular domain (rat, UniProt P15083 19-643)
T2 construct: extracellular domain
T2 sequence (looked up): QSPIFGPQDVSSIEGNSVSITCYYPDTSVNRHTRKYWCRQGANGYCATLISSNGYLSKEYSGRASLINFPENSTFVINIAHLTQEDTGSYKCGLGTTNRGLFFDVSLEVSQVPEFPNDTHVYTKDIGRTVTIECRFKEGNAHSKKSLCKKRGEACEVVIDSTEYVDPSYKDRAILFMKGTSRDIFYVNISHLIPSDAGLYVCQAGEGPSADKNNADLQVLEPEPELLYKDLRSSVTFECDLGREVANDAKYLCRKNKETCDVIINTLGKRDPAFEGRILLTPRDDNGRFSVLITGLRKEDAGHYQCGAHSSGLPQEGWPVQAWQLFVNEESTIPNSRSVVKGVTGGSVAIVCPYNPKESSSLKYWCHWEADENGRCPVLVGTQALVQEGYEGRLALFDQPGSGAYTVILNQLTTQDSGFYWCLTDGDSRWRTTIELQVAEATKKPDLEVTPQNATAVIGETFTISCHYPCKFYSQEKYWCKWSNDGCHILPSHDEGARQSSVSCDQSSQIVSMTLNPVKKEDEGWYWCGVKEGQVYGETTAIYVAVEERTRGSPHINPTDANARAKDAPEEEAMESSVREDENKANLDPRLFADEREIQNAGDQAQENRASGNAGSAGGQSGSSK

B1: 01B04R3L VHH Mono-Fc (Fc fusion)
chain: EVQLVESGGGLVQAGDSLRLSCAASGRTFTTYVMGWFRQAPGKEREFVATIAWSGSTNYKYYADSVKGRFTISRDNAKNTVYLRMNSLKPEDTAVYYCAASTVLTDPRRLNEYANWGQGTLVTVSSSPAPELLGGPSVFLFPPKPKDTLMISRTPEVTCVVVDVSHEDPEVKFNWYVDGVEVHNAKTKPREEQYNSTYRVVSVLTVLHQDWLNGKEYKCKVSNKALPAPIEKTISKAKGQPREPQVYTKPPSREEMTKNQVSLSCLVKGFYPSDIAVEWESNGQPENNYKTTVPVLDSDGSFRLASYLTVDKSRWQQGNVFSCSVMHEALHNHYTQKSLSLSPGK
B2: 01E04R3LS VHH Mono-Fc (Fc fusion)
chain: B1 chain with E44D, A52T, S65P, R84Q, A99T, A100S, L104V, R109K, N115Y
B3: 01B02R2L VHH Mono-Fc (Fc fusion)
chain: EVQLVESGGGLVQAGGSLKLACAASGLTFSSYRMGWFRQAPGKEREFVAAIDWNGRGTYYRYYADSVKGRFTISRDNAKNTMCLQMNSLKPEDTAVYYSAIDSRTSIDPRTSGHYRYWGQGTLVTVSSSPAPELLGGPSVFLFPPKPKDTLMISRTPEVTCVVVDVSHEDPEVKFNWYVDGVEVHNAKTKPREEQYNSTYRVVSVLTVLHQDWLNGKEYKCKVSNKALPAPIEKTISKAKGQPREPQVYTKPPSREEMTKNQVSLSCLVKGFYPSDIAVEWESNGQPENNYKTTVPVLDSDGSFRLASYLTVDKSRWQQGNVFSCSVMHEALHNHYTQKSLSLSPGK
B4: 01F12R2 VHH Mono-Fc (Fc fusion)
chain: EVQLVESGGGLVQPGGSLRLSCAASGRTFSSYTMGWFRQAPGEEREFVSAISWSSDGTYYKYYTDTVKGRFTISRDNAETTVHLQMNSLKPEDTAVYYCAASSSGTYGDPRSEREYRYWGQGTLVTVSSSPAPELLGGPSVFLFPPKPKDTLMISRTPEVTCVVVDVSHEDPEVKFNWYVDGVEVHNAKTKPREEQYNSTYRVVSVLTVLHQDWLNGKEYKCKVSNKALPAPIEKTISKAKGQPREPQVYTKPPSREEMTKNQVSLSCLVKGFYPSDIAVEWESNGQPENNYKTTVPVLDSDGSFRLASYLTVDKSRWQQGNVFSCSVMHEALHNHYTQKSLSLSPGK
B5: 01E03R3 VHH Mono-Fc (Fc fusion)
chain: QVQLVESGGGLVQTGGSLRLSCAASGRTFSVYRVGWFRQAPGKEREFVAAVIWSGASTYKYAADSVKGRFTISRDNAENTVYLQMNSLKPEDTAVYYCAADPLGLPGPDVRVEGGYRHWGQGTLVTVSSSPAPELLGGPSVFLFPPKPKDTLMISRTPEVTCVVVDVSHEDPEVKFNWYVDGVEVHNAKTKPREEQYNSTYRVVSVLTVLHQDWLNGKEYKCKVSNKALPAPIEKTISKAKGQPREPQVYTKPPSREEMTKNQVSLSCLVKGFYPSDIAVEWESNGQPENNYKTTVPVLDSDGSFRLASYLTVDKSRWQQGNVFSCSVMHEALHNHYTQKSLSLSPGK
B6: 01F03R2LS VHH Mono-Fc (Fc fusion)
chain: EVQLVESGGGLVQAGDSLRLSCAASGRTGSSGAMGWFRQGPGKEREFVAALMWRNTVTYKYYEDSVKGRFTISRDNAKNTAYLQMNSLKPEDTAVYYCAADPDTYGDPRNSGAYDYWGQGTLVTVSSSPAPELLGGPSVFLFPPKPKDTLMISRTPEVTCVVVDVSHEDPEVKFNWYVDGVEVHNAKTKPREEQYNSTYRVVSVLTVLHQDWLNGKEYKCKVSNKALPAPIEKTISKAKGQPREPQVYTKPPSREEMTKNQVSLSCLVKGFYPSDIAVEWESNGQPENNYKTTVPVLDSDGSFRLASYLTVDKSRWQQGNVFSCSVMHEALHNHYTQKSLSLSPGK
B7: 03C05R3 VHH Mono-Fc (Fc fusion)
chain: EVQLVESGGGLVKAEGSLRLSCVASTSIASINVMGWYRQAPGKERELVARISGGGITHYAESVEGRFTISRDNAKNTVHLQMNGLKPEDTAAYYCKADVFASSGHVTTYWGQGTLVTVSSSPAPELLGGPSVFLFPPKPKDTLMISRTPEVTCVVVDVSHEDPEVKFNWYVDGVEVHNAKTKPREEQYNSTYRVVSVLTVLHQDWLNGKEYKCKVSNKALPAPIEKTISKAKGQPREPQVYTKPPSREEMTKNQVSLSCLVKGFYPSDIAVEWESNGQPENNYKTTVPVLDSDGSFRLASYLTVDKSRWQQGNVFSCSVMHEALHNHYTQKSLSLSPGK
B8: 01G07R2L VHH Mono-Fc (Fc fusion)
chain: QVQLVESGGGLVQPGGSLRLSCVASGLPFSSSRMAWFAQAPGKEREFVAAIGWRGRTSYKYYADSVKGRFTVSGDNAKKTLDLQMKDLKPEDTALYFCAAHPNDDGDPRISGNYQYWGQGTQVTVSSSPAPELLGGPSVFLFPPKPKDTLMISRTPEVTCVVVDVSHEDPEVKFNWYVDGVEVHNAKTKPREEQYNSTYRVVSVLTVLHQDWLNGKEYKCKVSNKALPAPIEKTISKAKGQPREPQVYTKPPSREEMTKNQVSLSCLVKGFYPSDIAVEWESNGQPENNYKTTVPVLDSDGSFRLASYLTVDKSRWQQGNVFSCSVMHEALHNHYTQKSLSLSPGK
B9: 01C03R3LS VHH Mono-Fc (Fc fusion)
chain: B8 chain with Q1E, F29G, G52A, A63S, K79R, K89N
B10: 01C12R2 VHH Mono-Fc (Fc fusion)
chain: EVQLVESGGGLVQAGGSLRLSCAASGRTFGSYSMGWFRQAPGKEREFVGAISWSGSSTYKYYEDSVKGRFTISRDNAKNTVPLQMNSLKPEDTGVYFCGGTMERRDPRRTSAYDYWGQGTLVTVSSSPAPELLGGPSVFLFPPKPKDTLMISRTPEVTCVVVDVSHEDPEVKFNWYVDGVEVHNAKTKPREEQYNSTYRVVSVLTVLHQDWLNGKEYKCKVSNKALPAPIEKTISKAKGQPREPQVYTKPPSREEMTKNQVSLSCLVKGFYPSDIAVEWESNGQPENNYKTTVPVLDSDGSFRLASYLTVDKSRWQQGNVFSCSVMHEALHNHYTQKSLSLSPGK

In the first assay the target is T3, human pIgR extracellular domain (ECD) (human, UniProt P01833 19-638).
T3 construct: Bought from R&D Systems (Cat 2717-PG-050); also called hpIgR ECD
T3 sequence (P01833 other isoform, or with tags, fused parts or gaps): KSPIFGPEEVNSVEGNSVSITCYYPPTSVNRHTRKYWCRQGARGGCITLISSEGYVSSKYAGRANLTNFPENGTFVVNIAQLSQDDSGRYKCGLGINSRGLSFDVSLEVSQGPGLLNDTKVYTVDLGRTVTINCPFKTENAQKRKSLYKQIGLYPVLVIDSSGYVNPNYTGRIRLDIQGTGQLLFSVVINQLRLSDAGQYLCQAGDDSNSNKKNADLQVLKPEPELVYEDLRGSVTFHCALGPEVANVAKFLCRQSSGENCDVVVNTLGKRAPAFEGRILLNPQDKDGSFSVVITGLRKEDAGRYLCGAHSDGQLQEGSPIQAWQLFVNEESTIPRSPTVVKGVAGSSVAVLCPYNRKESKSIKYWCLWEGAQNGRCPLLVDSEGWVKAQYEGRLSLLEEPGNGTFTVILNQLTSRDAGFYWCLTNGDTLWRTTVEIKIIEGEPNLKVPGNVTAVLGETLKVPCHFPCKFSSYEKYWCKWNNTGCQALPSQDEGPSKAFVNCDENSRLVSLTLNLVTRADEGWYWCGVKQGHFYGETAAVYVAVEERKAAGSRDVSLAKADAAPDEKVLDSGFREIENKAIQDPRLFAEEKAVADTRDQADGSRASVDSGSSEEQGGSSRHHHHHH
The assay is described as follows: SPR, VHH captured by anti-Fc, ECD analyte. Put shortly: (§1)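 Single-cycle kinetics: ECD analyte from 30 nM, 3-fold series, low to high, with 30 min off-rate monitoring, over VHH captured at 0.5 ug/ml (~200-300 RU). HBSP plus 100 ug/ml BSA at 30 μL/min. Reference cell and buffer blank subtracted; global 1:1 Langmuir fit gave kon, koff, KD.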
A general note: In SPR one partner is held on a chip, and binding of the other changes the refractive index at the surface.
B1: binding was characterised by a dissociation constant (Kd) of 13.8 nM.

As for B2, the Kd was 5.37 nM.

In turn, B3 came in with a Kd of 20.2 nM.

Take B4: the Kd amounted to 12.5 nM.

Take B5: the Kd came to 2.95 nM.

In turn, B6 displayed a Kd of 26.2 nM.

Turning to B7, the Kd is 0.094 nM.

For the molecule B8, binding was put at a Kd of 3.32 nM.

In the case of B9, the Kd was 4.87 nM.

Molecule B10 returned a Kd of 21.4 nM.

A further assay has as its target T1, mouse pIgR extracellular domain (ECD). The assay is described as follows: SPR, VHH captured by anti-Fc, ECD analyte. The essentials:
as §1
Molecule B1 had a Kd of 9.2 nM.

Molecule B2 came in with a Kd of 3.76 nM.

Molecule B3 yielded a Kd of 4.47 nM.

For the molecule B4, the Kd came to 264 nM.

B5: the Kd came out at 10.4 nM.

In the case of B6, the affinity, expressed as Kd, was 1.57 nM.

Molecule B7 gave a Kd of 9.02 nM.

The molecule B8 gave a Kd of 0.948 nM.

The molecule B9 had a Kd of 0.8 nM.

For B10, the Kd was determined as 4.76 nM.

The next assay deals with T4, cynomolgus monkey pIgR extracellular domain (cynomolgus monkey, UniProt A0A2K5WMU9 19-638).
T4 construct: extracellular domain
T4 sequence (A0A2K5WMU9 entry or part of it): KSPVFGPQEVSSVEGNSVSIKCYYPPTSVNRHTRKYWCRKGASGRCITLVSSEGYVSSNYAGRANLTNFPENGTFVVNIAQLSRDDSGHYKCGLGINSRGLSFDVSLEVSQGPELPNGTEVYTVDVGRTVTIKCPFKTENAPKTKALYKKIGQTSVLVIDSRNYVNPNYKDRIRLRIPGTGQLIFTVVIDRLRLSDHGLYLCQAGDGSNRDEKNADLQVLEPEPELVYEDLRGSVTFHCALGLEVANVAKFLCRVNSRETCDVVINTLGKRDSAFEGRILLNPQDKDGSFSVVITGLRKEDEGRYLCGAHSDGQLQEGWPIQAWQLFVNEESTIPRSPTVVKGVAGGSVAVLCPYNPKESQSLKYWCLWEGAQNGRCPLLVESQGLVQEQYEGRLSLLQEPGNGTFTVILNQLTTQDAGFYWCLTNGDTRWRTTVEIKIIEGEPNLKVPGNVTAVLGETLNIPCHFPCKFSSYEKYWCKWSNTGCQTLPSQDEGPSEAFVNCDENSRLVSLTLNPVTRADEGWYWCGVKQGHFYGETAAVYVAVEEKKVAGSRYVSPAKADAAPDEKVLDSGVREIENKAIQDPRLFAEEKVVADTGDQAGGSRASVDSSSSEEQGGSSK
The assay is described as follows: SPR, VHH captured by anti-Fc, ECD analyte. Put shortly:
as §1
Turning to B1, the Kd turned out to be 5.94 nM.

For B2, the affinity, expressed as Kd, was 3.97 nM.

B3 yielded a Kd of 14.2 nM.

Molecule B4 had a Kd of 3.17 nM.

B5: binding was characterised by a dissociation constant (Kd) of 6.14 nM.

In turn, B6 came in with a Kd of 34.4 nM.

The molecule B7 registered a Kd of 16.5 nM.

Take B8: binding was characterised by a dissociation constant (Kd) of 4.02 nM.

Molecule B9 yielded a Kd of 2.84 nM.

For the molecule B10, binding was characterised by a dissociation constant (Kd) of 23 nM.

The next assay addresses T2, rat pIgR extracellular domain. The assay is described as follows: SPR, VHH captured by anti-Fc, ECD analyte. Put shortly: as §1
As for B1, the Kd is 4.71 nM.

With B2, binding was characterised by a dissociation constant (Kd) of 1.36 nM.

Molecule B3 registered a Kd of 13.4 nM.

For B4, the Kd turned out to be 4.2 nM.

Molecule B5 yielded a Kd of 24.9 nM.

As to B6, the equilibrium dissociation constant (Kd) was found to be 8.05 nM.

In turn, B7 registered a Kd of 1.83 nM.

In turn, B8 showed a Kd of 1.44 nM.

Turning to B9, binding was put at a Kd of 3.02 nM.

B10 showed a Kd of 14.1 nM.
